Experimental data from patent publication US20240124590A1 (ULTRAHUMAN EIGHT, published 2024).

T1: cynomolgus monkey PD1 human Fc tagged recombinant protein (cynomolgus monkey, UniProt Q15116 25-170 (human entry), limits assumed)
T1 construct: also called cyPD1-Fc; cyPD-1-Fc; not shown: human Fc tag
T1 chain: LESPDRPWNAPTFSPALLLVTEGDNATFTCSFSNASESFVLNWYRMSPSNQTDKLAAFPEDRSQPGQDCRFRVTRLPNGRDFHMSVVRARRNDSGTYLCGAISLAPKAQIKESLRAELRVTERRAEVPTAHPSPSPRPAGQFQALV

T2: cynomolgus monkey PD1 His tag (monomeric) (cynomolgus monkey, UniProt Q15116 25-170 (human entry), limits assumed)
T2 construct: Soluble monomeric analyte; whole entry named; also called monomeric cyno PD1; not shown: His tag
T2 chain: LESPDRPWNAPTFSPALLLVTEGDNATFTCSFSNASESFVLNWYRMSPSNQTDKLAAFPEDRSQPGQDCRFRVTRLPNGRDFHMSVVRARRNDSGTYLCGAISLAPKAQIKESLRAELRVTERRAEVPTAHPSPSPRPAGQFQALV

T3: cyno PD1 expressed on CHO-K1 cells (cynomolgus monkey, UniProt Q15116 25-288 (human entry))
T3 construct: also called cyno PD1+ CHO cells
T3 chain: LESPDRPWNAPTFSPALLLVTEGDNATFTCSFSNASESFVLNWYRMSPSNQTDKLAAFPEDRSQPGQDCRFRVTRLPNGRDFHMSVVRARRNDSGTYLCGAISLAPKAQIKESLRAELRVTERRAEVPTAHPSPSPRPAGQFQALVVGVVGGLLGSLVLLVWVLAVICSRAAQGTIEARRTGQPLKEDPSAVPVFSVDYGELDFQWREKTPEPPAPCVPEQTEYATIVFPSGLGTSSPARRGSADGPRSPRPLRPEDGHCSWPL

T4: human ULBP2 (UL16 binding protein 2) on transfected HEK293 cells (human, UniProt Q9BZM5 26-217)
T4 sequence: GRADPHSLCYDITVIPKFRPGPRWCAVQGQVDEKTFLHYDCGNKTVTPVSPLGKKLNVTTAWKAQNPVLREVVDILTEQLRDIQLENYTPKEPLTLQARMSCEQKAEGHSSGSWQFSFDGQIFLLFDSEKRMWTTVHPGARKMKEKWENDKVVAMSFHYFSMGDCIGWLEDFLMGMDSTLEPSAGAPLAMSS


Columns and labels:
[1] = target: T1, cynomolgus monkey PD1 human Fc tagged …; experiment: direct ELISA, Fab on coated PD1-Fc
Method: (§1) Binding and cross-reactivity of the lead panel to the recombinant proteins was initially assessed by binding ELISA. The human PD1 human Fc tagged recombinant protein and the cynomolgus monkey PD1 human Fc tagged recombinant protein were coated to the surface of MaxiSorp™ flat-bottom 96 well plate at 1 μg/ml. […] The Fabs were detected using mouse anti-c-myc antibody followed by donkey anti-mouse IgG conjugated to horseradish peroxidase. The IgGs were detected using the mouse anti-human IgG conjugated to horseradish peroxidase. Binding signals were visualized with 3,3′,5,5′-Tetrannethylbenzidine Substrate Solution (TMB) and the absorbance measured at 450 nm.
(§2) The top 12 clones were also expressed as Fab protein from E. coli expression, purified to homogeneity, quantified, and applied in direct ELISA binding analyses on human PD1-Fc and cyno PD1-Fc (FIGS. 2A&B, Table 5).

[2] = target: T5, human PD1 human Fc tagged recombinant protein (human, UniProt Q15116 25-170, limits assumed); experiment: direct ELISA, Fab on coated PD1-Fc
T5 construct: also called huPD1-Fc; huPD-1-Fc; not shown: human Fc tag
Method: as §1, §2

[3] = target: T6, biotinylated human PD1-His/AviTag (human, UniProt Q15116 25-170, limits assumed, biotinylated); experiment: Alphascreen competition vs IgG1-Mab005 (humanized)
T6 construct: Alphascreen antigen; whole entry named; also called biotinylated monomeric human PD1; not shown: His/AviTag
Method: The AlphaScreen assay (Perkin Elmer) was performed in a 25 μl final volume in 384-well white microtiter plates (Greiner). The reaction buffer contained 1×PBS pH 7.3 (Oxoid, Cat. nr. BRO014G) and 0.05% (v/v) Tween® 20 (Sigma, Cat. nr. P9416). Purified IgG samples were titrated in three fold serial dilutions starting at 500 nM final concentration and incubated with biotinylated human PD1-His/AviTag at 0.6 nM final concentration for 20 minutes at room temperature. […] Followed by addition of the Streptavidin Donor beads at 20 μg/ml (final concentration) and incubation for 30 minutes at room temperature. The emission of light was measured in the EnVision multilabel plate reader (Perkin Elmer) and analysed using the EnVision manager software. Values were reported as Counts Per Second (CPS) and corrected for crosstalk.

[4] = target: T1, cynomolgus monkey PD1 human Fc tagged …; experiment: direct ELISA, IgG1null on coated PD1-Fc
Method: as §1
(§3) The purified IgGs described above were then tested for binding to human and cyno PD1-Fc in direct titration ELISA format. […] As the ELISA EC50 values for directly binding IgGs are strongly influenced by avidity, rather than true 1:1 binding affinity, we then proceeded to perform higher-sensitivity, solution-phase epitope competition and Biacore binding affinity determinations, as outlined below.

[5] = target: T5, human PD1 human Fc tagged recombinant …; experiment: direct ELISA, IgG1null on coated PD1-Fc
Method: as §1, §3

[6] = target: T7, human PD1 His tagged (monomeric) (human, UniProt Q15116 25-170, limits assumed); experiment: SPR (Biacore), IgG captured, monomeric PD1-His analyte
T7 construct: Soluble monomeric analyte; whole entry named; also called monomeric human PD1; not shown: His tag
Method: (§4) Affinity (KD) of purified IgGs was determined via SPR with antigen in-solution on a Biacore 3000 (GE). A mouse anti-human antibody (CH1 specific) was immobilized on a CM5 Sensor Chip to a level of 2000 RU in acetate buffer at pH 4.5 using amine coupling following the Wizard instructions for two channels. One channel was used for background signal correction. The standard running buffer HBS-EP pH 7.4 was used. Regeneration was performed with a single injection of 10 μl of 10 mM Glycine at pH 1.5 at 20 μl/minute. IgG samples were injected for 2 minutes at 50 nM at 30 μl/min followed by and off-rate of 60 seconds. […] The obtained sensorgrams were analysed using the Biacore 3000 evaluation (BIAevaluation) software. The KD was calculated by simultaneous fitting of the association and dissociation phases to a 1:1 Langmuir binding model.
(§5) Biacore analyses of binding affinity was performed for all IgGs to solution-phase, monomeric human and cyno PD1 proteins.

[7] = target: T2, cynomolgus monkey PD1 His tag …; experiment: as above
Method: as §4, §5

[8] = target: T3, cyno PD1 expressed on CHO-K1 cells; experiment: flow cytometry, PD1 CHO-K1 cells
Method: (§6) Purified IgGs were tested in FACs for binding to human and cyno PD1 expressed on CHO-K1 stable cell lines and CHO-K1 wild-type cells. […] Binding of IgGs was detected with a mouse anti-human IgG conjugated to FITC. Results were analyzed by examining the Mean Fluorescence Intensity (MFI) of 10000 cells per sample in the BL-1 channel detector of a flow cytometer (Attune™ NxT Acoustic Focusing Cytometer, Invitrogen/ThermoFisher Scientific).
(§7) Antibodies to PD1 were analysed for concentration-dependent binding at the cell surface via flow cytometry. Initial analyses were performed on CHO cells stably-transfected with human or cyno PD1.

[9] = target: T8, human PD1 expressed on cells (human, UniProt Q15116 25-288); experiment: flow cytometry, PD1 CHO-K1 cells
T8 construct: also called human PD1+ CHO cells; PD1-transfected HEK293 cells
Method: as §6, §7

[10] = target: T8, human PD1 expressed on cells; experiment: cell-based or functional assay
[11] = target: T9, human FZD5 (frizzled class receptor 5) on transfected HEK293 cells (human, UniProt Q13467 27-585); experiment: cell microarray re-array, transfected HEK293
T9 construct: also called FZDS; FZ5
Method: (§8) Antibody binding was detected using AF647 fluorescent secondary anti-human IgG1 antibody. Primary hits (duplicate spots) were identified by analysing fluorescence (AF647 and ZsGreen1) on ImageQuant. Vectors encoding all hits were sequenced to confirm their correct identities. […] Slides were analysed as above. Flow cytometry confirmation screen: Expression vectors encoding ZsGreen1 only, or ZsGreen1 and PD1, FZDS, KDR or ULBP2, were transfected into human HEK293 cells. Each live transfectant was incubated with […] of each of the test antibodies and the Isotype control antibody. Cells were washed, and incubated with the same AF647 anti-human IgG Fc detection antibody as used in the cell microarray screens. Cells were again washed, and analysed by flow cytometry using an Accuri flow cytometer (BD). A 7AAD live/dead dye was used to exclude dead cells, and ZsGreen1-positive cells (i.e. transfected cells) were selected for analyses.

[12] = target: T10, human KDR (VEGFR2) on cells (human, UniProt P35968 20-1356); experiment: cell microarray re-array, transfected HEK293
T10 construct: Transfected HEK293 cells (arrays, flow cytometry) and human VEGFR2 reporter cells
Method: as §8

[13] = target: T4, human ULBP2 (UL16 binding protein 2) on …; experiment: cell microarray re-array, transfected HEK293
Method: as §8

[14] = target: T1, cynomolgus monkey PD1 human Fc tagged …; experiment: direct ELISA, IgG1null on coated PD1-Fc
Method: as §1, §3

[15] = target: T5, human PD1 human Fc tagged recombinant …; experiment: direct ELISA, IgG1null on coated PD1-Fc; remark: listed apart in the source
Method: as §1, §3

T6 sequence (Q15116 25-170 limits assumed): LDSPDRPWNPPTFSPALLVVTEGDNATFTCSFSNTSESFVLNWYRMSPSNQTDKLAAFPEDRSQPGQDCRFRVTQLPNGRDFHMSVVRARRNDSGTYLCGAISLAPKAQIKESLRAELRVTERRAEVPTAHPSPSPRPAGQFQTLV
T5 sequence (Q15116 25-170 limits assumed): as above
T7 sequence (Q15116 25-170 limits assumed): as above
T8 sequence (Q15116 25-288 limits assumed): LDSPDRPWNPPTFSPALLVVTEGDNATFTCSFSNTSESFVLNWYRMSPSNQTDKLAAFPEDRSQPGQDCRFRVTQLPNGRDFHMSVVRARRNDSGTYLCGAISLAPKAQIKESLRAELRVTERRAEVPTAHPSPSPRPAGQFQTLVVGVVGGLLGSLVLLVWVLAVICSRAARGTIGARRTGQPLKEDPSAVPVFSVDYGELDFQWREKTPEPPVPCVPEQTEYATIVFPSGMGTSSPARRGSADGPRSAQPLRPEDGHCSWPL
T10 sequence (P35968 20-1356 limits assumed): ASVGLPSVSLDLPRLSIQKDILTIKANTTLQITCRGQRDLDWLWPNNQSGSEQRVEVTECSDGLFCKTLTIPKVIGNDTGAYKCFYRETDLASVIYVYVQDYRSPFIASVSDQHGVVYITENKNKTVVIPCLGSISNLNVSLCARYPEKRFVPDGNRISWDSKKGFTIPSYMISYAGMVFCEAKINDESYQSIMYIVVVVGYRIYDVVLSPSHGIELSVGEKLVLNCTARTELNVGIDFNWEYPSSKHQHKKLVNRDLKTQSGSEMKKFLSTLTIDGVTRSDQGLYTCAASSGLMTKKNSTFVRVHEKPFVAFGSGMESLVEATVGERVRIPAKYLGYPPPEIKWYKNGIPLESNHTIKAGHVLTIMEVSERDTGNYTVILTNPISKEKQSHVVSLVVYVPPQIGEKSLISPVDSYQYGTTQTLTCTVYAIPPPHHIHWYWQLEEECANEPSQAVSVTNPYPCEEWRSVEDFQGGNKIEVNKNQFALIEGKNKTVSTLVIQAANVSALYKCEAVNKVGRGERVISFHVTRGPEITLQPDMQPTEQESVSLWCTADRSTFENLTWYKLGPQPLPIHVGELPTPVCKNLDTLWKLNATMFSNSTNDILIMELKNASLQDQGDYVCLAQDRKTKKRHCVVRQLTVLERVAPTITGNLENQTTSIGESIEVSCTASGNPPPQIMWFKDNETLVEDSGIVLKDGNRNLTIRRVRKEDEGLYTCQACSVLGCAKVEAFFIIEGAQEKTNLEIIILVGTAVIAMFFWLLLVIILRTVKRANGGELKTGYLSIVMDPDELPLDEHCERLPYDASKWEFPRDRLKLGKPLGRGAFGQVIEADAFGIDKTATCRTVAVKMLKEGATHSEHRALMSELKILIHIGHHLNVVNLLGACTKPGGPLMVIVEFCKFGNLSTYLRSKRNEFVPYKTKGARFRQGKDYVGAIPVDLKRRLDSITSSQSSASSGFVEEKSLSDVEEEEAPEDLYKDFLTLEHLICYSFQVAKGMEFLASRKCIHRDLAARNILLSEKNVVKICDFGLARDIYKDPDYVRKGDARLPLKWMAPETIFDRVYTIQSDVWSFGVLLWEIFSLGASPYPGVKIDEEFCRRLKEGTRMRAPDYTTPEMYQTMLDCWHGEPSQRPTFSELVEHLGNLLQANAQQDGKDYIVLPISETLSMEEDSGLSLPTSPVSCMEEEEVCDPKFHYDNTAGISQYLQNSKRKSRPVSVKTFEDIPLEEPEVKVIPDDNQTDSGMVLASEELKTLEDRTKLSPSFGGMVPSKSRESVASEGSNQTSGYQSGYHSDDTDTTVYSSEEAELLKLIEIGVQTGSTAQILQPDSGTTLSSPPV
T9 sequence (Q13467 27-585 limits assumed): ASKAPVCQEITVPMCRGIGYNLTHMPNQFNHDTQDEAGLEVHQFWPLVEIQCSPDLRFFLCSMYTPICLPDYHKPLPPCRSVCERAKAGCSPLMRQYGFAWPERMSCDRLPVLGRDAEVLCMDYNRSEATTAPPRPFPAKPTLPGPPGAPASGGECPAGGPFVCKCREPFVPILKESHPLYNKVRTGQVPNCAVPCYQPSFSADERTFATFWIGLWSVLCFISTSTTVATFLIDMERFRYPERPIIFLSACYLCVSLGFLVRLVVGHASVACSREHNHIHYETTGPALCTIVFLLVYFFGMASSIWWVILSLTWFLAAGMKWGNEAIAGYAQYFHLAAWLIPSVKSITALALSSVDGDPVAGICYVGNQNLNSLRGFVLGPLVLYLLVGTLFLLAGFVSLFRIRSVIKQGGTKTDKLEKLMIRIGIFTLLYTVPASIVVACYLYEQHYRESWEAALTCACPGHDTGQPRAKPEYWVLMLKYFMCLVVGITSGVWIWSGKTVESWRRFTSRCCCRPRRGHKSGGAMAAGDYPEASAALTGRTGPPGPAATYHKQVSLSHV

| Binder | EC50 [1] [nM] | EC50 [2] [nM] | IC50 [3] [nM] | EC50 [4] [nM] | EC50 [5] [nM] | Kd [6] [nM] | koff [6] [s⁻¹] | kon [6] [M⁻¹ s⁻¹] | Kd [7] [nM] | koff [7] [s⁻¹] | kon [7] [M⁻¹ s⁻¹] | EC50 [8] [nM] | EC50 [9] [nM] | EC50 (ng/ml), IgG1null blockade of human PD1/PD-L1 [10] [ng/mL] | binding result [11] | binding result [12] | binding result [13] | EC50 [14] [nM] | EC50 [15] [nM] |
| --- | --- | --- | --- | --- | --- | --- | --- | --- | --- | --- | --- | --- | --- | --- | --- | --- | --- | --- | --- |
| Fab06D02 (Fab, V domains shown, Human Fab from E. coli, His/c-myc tags) VH: EVQLVESGGGLVQPGGSLRLSCAASGFTFSSYLMSWVRQAPGKGLEWVATISGGGSETYYVDSVKGRFTISRDNAKNSLYLQMNSLRAEDTAVYYCARQLYGFDYWGQGTLVTVSS VL: not shown | 1.01 | 0.743 |  |  |  |  |  |  |  |  |  |  |  |  |  |  |  |  |  |
| Fab-Mab005 (Fab, V domains shown, Purified monomeric human Fab from E. coli, His tag, detected by c-myc; also called Mab005 (humanized) Fab) VH: EVQLVESGGGLVQPGGSLRLSCAASGFTFSSYMMSWVRQAPGKGLEWVATISGGGANTYYPDSVKGRFTISRDNAKNSLYLQMNSLRAEDTAVYYCARQLYYFDYWGQGTTVTVSS VL: DIQMTQSPSSLSASVGDRVTITCLASQTIGTWLTWYQQKPGKAPKLLIYTATSLADGVPSRFSGSGSGTDFTLTISSLQPEDFATYYCQQVYSIPWTFGGGTKVEIK |  | 1.25 |  |  |  |  |  |  |  |  |  |  |  |  |  |  |  |  |  |
| Fab12H04 (Fab, V domains shown, Human Fab from E. coli, His/c-myc tags) VH: EVQLVESGGGLVQPGGSLRLSCAASGFTFSSYLMSWVRQAPGKGLEWVATISGGGAEKYYVDSVKGRFTISRDNAKNSLYLQMNSLRAEDTAVYYCARQLYGFDYWGQGTLVTVSS VL: not shown | 1.4 | 0.708 |  |  |  |  |  |  |  |  |  |  |  |  |  |  |  |  |  |
| IgG1-12H04 (antibody, V domains shown, Library-derived; human IgG1null + Ckappa) VH: EVQLVESGGGLVQPGGSLRLSCAASGFTFSSYLMSWVRQAPGKGLEWVATISGGGAEKYYVDSVKGRFTISRDNAKNSLYLQMNSLRAEDTAVYYCARQLYGFDYWGQGTLVTVSS VL: not shown |  |  | 4.01 | 0.12 | 0.112 | 1.6 | 0.00032 | 200000 | 4.7 | 0.00064 | 140000 | 2.17 | 1.95 | 188 |  |  |  |  |  |
| IgG1-14 (antibody, V domains shown, Designer; human IgG1null + Ckappa; also called Antibody IgG1-14) VH: EVQLVESGGGLVQPGGSLRLSCAASGFTFSSYLMSWVRQAPGKGLEWVATISGGGSEKYYVDSVKGRFTISRDNAKNSLYLQMNSLRAEDTAVYYCARQLYAFDYWGQGTLVTVSS VL: not shown |  |  | 3 |  |  | 2.57 | 0.00046 | 180000 | 6.9 | 0.00097 | 140000 | 1.33 | 1.87 | 212 | no binding (tested: 5 µg/ml) | no binding (tested: 5 µg/ml) | no binding (tested: 5 µg/ml) | 0.0959 | 0.125 |
| IgG1-11 (antibody, V domains shown, Designer; human IgG1null + Ckappa; also called Antibody IgG1-11) VH: EVQLVESGGGLVQPGGSLRLSCAASGFTFSSYLMSWVRQAPGKGLEWVATISGGGSEKYYVDSVKGRFTISRDNAKNSLYLQMNSLRAEDTAVYYCARQLYFFDYWGQGTLVTVSS VL: not shown |  |  | 1.41 |  |  | 3.01 | 0.0004 | 130000 | 7.1 | 0.00073 | 100000 | 0.861 | 0.978 | 172 | no binding (tested: 5 µg/ml) | no binding (tested: 5 µg/ml) | no binding (tested: 5 µg/ml) | 0.0498 | 0.0492 |
